In patent US20170202953A1 (AGENCY FOR SCIENCE TECHNOLOGY AND RESEARCH, published 2017):

Tests used:
[1] = biological target: T1, HBc18-27-HLA-A201 pentamer (PE-conjugated HLA-A2 class I pentamer bearing the HBc18-27 epitope, Proimmune) (Hepatitis B virus; human); experiment: flow cytometry, pentamer staining of transduced lymphocytes; the filing puts the difference down to expression of the Vα3 chain
T1 construct: also called HLA-A2 pentamer; HBc18-HLA-A201 pentamer

[2] = biological target: T2, HBV core antigen (HBc18-27, genotype B/C; 27I) peptide on HLA-A*02:06 (human); experiment: T cell clone or line
T2 peptide: FLPSDFFPSI

[3] = biological target: T3, HBV core antigen (HBc18-27, genotype B/C; 27I) peptide on HLA-A*02:01 (human); experiment: T cell clone or line
T3 peptide: FLPSDFFPSI

[4] = biological target: T4, HBV core antigen (HBc18-27, genotype B/C; 27I) peptide on HLA-A*02:07 (human); experiment: T cell clone or line
T4 peptide: FLPSDFFPSI

[5] = biological target: T5, HBV envelope antigen (HBs370-79, genotype C) peptide on HLA-A*02:01 (human); experiment: cytokine release
T5 peptide: NILNPFLPLL

[6] = biological target: T6, HBV envelope antigen (HBs370-79, genotype A/D) peptide on HLA-A*02:01 (human); experiment: cytokine release
T6 peptide: SIVSPFIPLL

[7] = biological target: T7, HBV envelope antigen (HBs370-79, genotype B) peptide on HLA-A*02:01 (human); experiment: cytokine release
T7 peptide: NILSPFMPLL

B1: HBc18-Opt-TCR (codon optimized HBc18-27 TCR, Vα3 / Vβ8.2) (TCR, V domains shown)
V domain 1: SQQGEEDPQALSIQEGENATMNCSYKTSINNLQWYRQNSGRGLVHLILIRSNEREKHSGRLRVTLDTSKKSSSLLITASRAADTASYFCATWLSGSARQLTFGSGTQLTVLP
V domain 2: DAGVIQSPRHEVTEMGQEVTLRCKPISGHDYLFWYRQTMMRGLELLIYFNNNVPIDDSGMPEDRFSAKMPNASFSTLKIQPSEPRDSAVYFCASSNRASSYNEQFFGPGTRLTVLE
notes: also called codon optimized TCR; HBc18-Opt-Vα3 and HBc18-Opt-Vβ8.2
B1 was tested, and the “fold frequency of pentamer positive cells against HBc18-WT-TCR” value [1] was 2 fold.

B2: HBc18-27 TCR (TCR, V domains shown)
Valpha: SQQGEEDPQALSIQEGENATMNCSYKTSINNLQWYRQNSGRGLVHLILIRSNEREKHSGRLRVTLDTSKKSSSLLITASRAADTASYFCATWLSGSARQLTFGSGTQLTVLP
Vbeta: DAGVIQSPRHEVTEMGQEVTLRCKPISGHDYLFWYRQTMMRGLELLIYFNNNVPIDDSGMPEDRFSAKMPNASFSTLKIQPSEPRDSAVYFCASSNRASSYNEQFFGPGTRLTVL
For B2, the “peptide concentration still recognised” value [2] was ≤ 1 pM, the “peptide concentration still recognised” value [3] was ≤ 1 pM and the “peptide concentration still recognised” value [4] was ≤ 1 pM.

B3: HBs370-79 TCR (TCR, V domains shown)
Valpha: QKEVEQNSGPLSVPEGAIASLNCTYSDRGSQSFFWYRQYSGKSPELIMFIYSNGDKEDGRFTAQLNKASQYVSLLIRDSQPSDSATYLCAVNLYAGNMLTFGGGTRLMVKP
Vbeta: GAGVSQSPRYKVAKRGQDVALRCDPISGHVSLFWYQQALGQGPEFLTYFQNEAQLDKSGLPSDRFFAERPEGSVSTLKIQRTQQEDSAVYLCASSSDFGNQPQHFGDGTRLSIL
B3: recognises [5]; recognises [6]; recognises [7].
